Data set [1] deals with flag tagged HDAC4 (overexpressed in neonatal rat cardiomyocytes).
Data set [2] has as its system HDAC4 expressed in Saccharomyces cerevisiae from a constitutively active promoter (pNOP).

Two substances from patent US20180258407 can be followed below.

Regarding “gfp tagged abhd5 (adenoviral overexpression in neonatal rat ventricular myocytes)”, in data set [1], the “HDAC4 cleavage, immunoblot” value is “Overexpressed flag tagged HDAC4 was cleaved whenever gfp tagged abhd5 was coexpressed”.

In the case of “ABHD5 expressed in Saccharomyces cerevisiae from a Galactose inducible promoter (pGAL)”, the “cleavage of HDAC4 in Saccharomyces cerevisiae, westernblot analysis” value in data set [2] is given as “By overexpression either together or with backbone vector in Saccharomyces cerevisiae we found cleavage of HDAC4, confirmed by westernblot analysis”.
